Data from US20080003630.

B1: IGF-1 Receptor Kinase, intracellular domain (ICD) (protein)
chain: RKRNNSRLGNGVLYASVNPEYFSAADVYVPDEWEVAREKITMSRELGQGSFGMVYEGVAKGVVKDEPETRVAIKTVNEAASMRERIEFLNEASVMKEFNCHHVVRLLGVVSQGQPTLVIMELMTRGDLKSYLRSLRPEMENNPVLAPPSLSKMIQMAGEIADGMAYLNANKFVHRDLAARNCMVAEDFTVKIGDFGMTRDIYETDYYRKGGKGLLPVRWMSPESLKDGVFTTYSDVWSFGVVLWEIATLAEQPYQGLSNEQVLRFVMEGGLLDKPDNCPDMLFELMRMCWQYNPKMRPSFLEIISSIKEEMEPGFREVSFYYSEENKLPEPEELDLEPENMESVPLDPSASSSSLPLPDRHSGHKAENGPGPGVLVLRASFDERQPYAHMNGGRKNERALPLPQSSTC
B2: PDGF Receptor β Kinase, intracellular domain (ICD) (protein)
chain: RYEIRWKVIESVSSDGHEYIYVDPMQLPYDSTWELPRDQLVLGRTLGSGAFGQVVEATAHGLSHSQATMKVAVKMLKSTARSSEKQALMSELKIMSHLGPHLNVVNLLGACTKGGPIYIITEYCRYGDLVDYLHRNKHTFLQHHSDKRRPPSAELYSNALPVGLPLPSHVSLTGESDGGYMDMSKDESVDYVPMLDMKGDVKYADIESSNYMAPYDNYVPSAPERTCRATLINESPVLSYMDLVGFSYQVANGMEFLASKNCVHRDLAARNVLICEGKLVKICDFGLARDIMRDSNYISKGSTFLPLKWMAPESIFNSLYTTLSDVWSFGILLWEIFTLGGTPYPELPMNEQFYNAIKRGYRMAQPAHASDEIYEIMQKCWEEKFEIRPPFSQLVLLLERLLGEGYKKKYQQVDEEFLRSDHPAILRSQARLPGFHGLRSPLDTSSVLYTAVQPNEGDNDYIIPLPDPKPEVADEGPLEGSPSLASSTLNEVNTSSTISCDSPLEPQDEPEPEPQLELQVEPEPELEQLPDSGCPAPRAEAEDSFL
B3: ErbB4 Kinase, intracellular domain (ICD) (protein)
chain: RRKSIKKKRALRRFLETELVEPLTPSGTAPNQAQLRILKETELKRVKVLGSGAFGTVYKGIWVPEGETVKIPVAIKILNETTGPKANVEFMDEALIMASMDHPHLVRLLGVCLSPTIQLVTQLMPHGCLLEYVHEHKDNIGSQLLLNWCVQIAKGMMYLEERRLVHRDLAARNVLVKSPNHVKITDFGLARLLEGDEKEYNADGGKMPIKWMALECIHYRKFTHQSDVWSYGVTIWELMTFGGKPYDGIPTREIPDLLEKGERLPQPPICTIDVYMVMVKCWMIDADSRPKFKELAAEFSRMARDPQRYLVIQGDDRMKLPSPNDSKFFQNLLDEEDLEDMMDAEEYLVPQAFNIPPPIYTSRARIDSNRSEIGHSPPPAYTPMSGNQFVYRDGGFAAEQGVSVPYRAPTSTIPEAPVAQGATAEIFDDSCCNGTLRKPVAPHVQEDSSTQRYSADPTVFAPERSPRGELDEEGYMTPMRDKPKQEYLNPVEENPFVSRRKNGDLQALDNPEYHNASNGPPKAEDEYVNEPLYLNTFANTLGKAEYLKNNILSMPEKAKKAFDNPDYWNHSLPPRSTLQHPDYLQEYSTKYFYKQNGRIRPIVAENPEYLSEFSLKPGTVLPPPPYRHRNTVV
B4: VEGF Receptor 1 Kinase, intracellular domain (ICD) (protein)
chain: RKMKRSSSEIKTDYLSIIMDPDEVPLDEQCERLPYDASKWEFARERLKLGKSLGRGAFGKVVQASAFGIKKSPTCRTVAVKMLKEGATASEYKALMTELKILTHIGHHLNVVNLLGACTKQGGPLMVIVEYCKYGNLSNYLKSKRDLFFLNKDAALHMEPKKEKMEPGLEQGKKPRLDSVTSSESFASSGFQEDKSLSDVEEEEDSDGFYKEPITMEDLISYSFQVARGMEFLSSRKCIHRDLAARNILLSENNVVKICDFGLARDIYKNPDYVRKGDTRLPLKWMAPESIFDKIYSTKSDVWSYGVLLWEIFSLGGSPYPGVQMDEDFCSRLREGMRMRAPEYSTPEIYQIMLDCWHRDPKERPRFAELVEKLGDLLQANVQQDGKDYIPINAILTGNSGFTYSTPAFSEDFFKESISAPKFNSGSSDDVRYVNAFKFMSLERIKTFEELLPNATSMFDDYQGDSSTLLASPMLKRFTWTDSKPKASLKIDLRVTSKSKESGLSDVSRPSFCHSSCGHVSEGKRRFTYDHAELERKIACCSPPPDYNSVVLYSTPPI

Target: GST-poly (Glu, Tyr) fusion protein
Sequence (chain, as listed by the source): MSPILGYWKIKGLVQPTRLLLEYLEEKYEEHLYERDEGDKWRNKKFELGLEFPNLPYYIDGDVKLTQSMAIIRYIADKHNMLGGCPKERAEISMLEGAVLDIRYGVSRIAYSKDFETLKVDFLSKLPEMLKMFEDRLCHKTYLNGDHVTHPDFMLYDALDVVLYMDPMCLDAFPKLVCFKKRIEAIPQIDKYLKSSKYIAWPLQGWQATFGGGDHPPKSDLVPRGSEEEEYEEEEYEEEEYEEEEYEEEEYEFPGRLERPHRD

Row | Protein | phosphorylation of the plate-bound substrate, ELISA with HRP-labeled p-Tyr (PY20) antibody, absorbance (650 nm) | phosphorylation of the substrate with ATP, Western blotting with Anti-Phosphotyrosine clone 4G10
1 | B1 | In either case of HER1 and IGF1R, as the tyrosine kinase amount increased, a measured value was increased | In +of all of (i to vii) in FIG. 1, a single band was observed at a position where the phosphorylated GST-poly (Glu, Tyr) fusion protein appears
2 | B2 | – | In +of all of (i to vii) in FIG. 1, a single band was observed at a position where the phosphorylated GST-poly (Glu, Tyr) fusion protein appears
3 | B3 | – | In +of all of (i to vii) in FIG. 1, a single band was observed at a position where the phosphorylated GST-poly (Glu, Tyr) fusion protein appears
4 | B4 | – | In +of all of (i to vii) in FIG. 1, a single band was observed at a position where the phosphorylated GST-poly (Glu, Tyr) fusion protein appears
